Measurements: publication PMC12167484, “Specific phosphoinositide interaction of Jps1 is a key feature during unconventional secretion in Ustilago maydis” (The Journal of Biological Chemistry, 2025)

What was measured:
[1] = biological target: Sporisorium reilianum Jps1, full-length recombinant (Sporisorium reilianum); assay: mass photometry; TwoMP mass photometer, protein at 10 nM in Hepes buffer, room temperature; monomer to dimer
[2] = biological target: Sporisorium reilianum Jps1, full-length recombinant (Sporisorium reilianum); assay: SEC-MALS; after SEC purification the sample was applied to a Superdex 200 10/30 column coupled to a miniDAWN TREOS light scattering detector and a refractive index detector; monomer to dimer
[3] = biological target: T1, UmJps1 (Jps1^1-609) (Mycosarcoma maydis, UniProt A0A0D1C3B2); assay: liposome co-sedimentation, SDS-PAGE; type: binding; details: DOPC:cholesterol:PIP 80:15:5 (with cholesterol); protein:lipid 1:5000; pH 7.5, room temperature
T1 construct: gene UMAG_03776; full length, 609 residues; 6xHis-Jps1 made in E. coli Rosetta(DE3) pLyS (pET22b, C-terminal His-tag in strip assay); homodimer 134 kDa
T1 sequence (A0A0D1C3B2 1-609): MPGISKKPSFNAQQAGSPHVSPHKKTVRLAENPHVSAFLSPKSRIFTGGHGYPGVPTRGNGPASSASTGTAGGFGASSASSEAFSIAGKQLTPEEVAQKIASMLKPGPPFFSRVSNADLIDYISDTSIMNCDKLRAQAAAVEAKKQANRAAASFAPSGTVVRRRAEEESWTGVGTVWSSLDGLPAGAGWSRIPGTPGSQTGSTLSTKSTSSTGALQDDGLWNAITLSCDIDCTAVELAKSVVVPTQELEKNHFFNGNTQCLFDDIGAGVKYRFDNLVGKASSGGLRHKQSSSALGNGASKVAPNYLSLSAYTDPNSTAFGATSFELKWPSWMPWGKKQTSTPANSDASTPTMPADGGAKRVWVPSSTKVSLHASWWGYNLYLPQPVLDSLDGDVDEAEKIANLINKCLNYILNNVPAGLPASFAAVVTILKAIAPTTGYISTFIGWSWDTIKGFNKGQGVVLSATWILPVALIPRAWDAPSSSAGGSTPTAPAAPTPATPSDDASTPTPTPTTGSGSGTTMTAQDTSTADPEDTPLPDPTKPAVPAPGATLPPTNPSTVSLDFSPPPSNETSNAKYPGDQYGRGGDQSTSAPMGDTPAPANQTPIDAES

[4] = biological target: T2, HcJps1 (Hebeloma cylindrosporum, UniProt A0A0C3CFZ0); assay: surface plasmon resonance, immobilised liposomes, steady-state affinity; type: binding; details: DOPC/PI(4,5)P2 liposomes (1 mM lipid) on LP chip, DOPC reference; 20 mM Hepes pH 7.5, 20 mM KCl, 200 mM NaCl; 0.2-6.4 μM protein
T2 construct: gene M413DRAFT_206302; full length, 287 residues; 6xHis-GB1 fusion made in E. coli (GB1 tag cleaved with TEV before SEC; codon-optimised gene for U. maydis)
T2 sequence (A0A0C3CFZ0 1-287): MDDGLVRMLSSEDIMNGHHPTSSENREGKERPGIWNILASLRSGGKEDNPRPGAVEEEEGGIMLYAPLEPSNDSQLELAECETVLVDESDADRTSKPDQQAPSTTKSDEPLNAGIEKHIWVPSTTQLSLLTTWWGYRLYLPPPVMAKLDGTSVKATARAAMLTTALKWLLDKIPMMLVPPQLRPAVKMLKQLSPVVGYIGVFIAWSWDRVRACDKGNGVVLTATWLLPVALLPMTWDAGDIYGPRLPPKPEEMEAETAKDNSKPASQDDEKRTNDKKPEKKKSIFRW

[5] = biological target: T3, Cts1 (Mycosarcoma maydis, UniProt A0A0D1DVM8); assay: fluorogenic chitinase assay, intact cells or native extract; type: cell-based; details: KHM buffer (110 mM potassium acetate, 20 mM Hepes, 2 mM MgCl2), 25 °C
T3 construct: gene UMAG_10419; native Cts1, extracellular on intact U. maydis AB33 cells or in native cell extracts
T3 sequence (A0A0D1DVM8 1-502): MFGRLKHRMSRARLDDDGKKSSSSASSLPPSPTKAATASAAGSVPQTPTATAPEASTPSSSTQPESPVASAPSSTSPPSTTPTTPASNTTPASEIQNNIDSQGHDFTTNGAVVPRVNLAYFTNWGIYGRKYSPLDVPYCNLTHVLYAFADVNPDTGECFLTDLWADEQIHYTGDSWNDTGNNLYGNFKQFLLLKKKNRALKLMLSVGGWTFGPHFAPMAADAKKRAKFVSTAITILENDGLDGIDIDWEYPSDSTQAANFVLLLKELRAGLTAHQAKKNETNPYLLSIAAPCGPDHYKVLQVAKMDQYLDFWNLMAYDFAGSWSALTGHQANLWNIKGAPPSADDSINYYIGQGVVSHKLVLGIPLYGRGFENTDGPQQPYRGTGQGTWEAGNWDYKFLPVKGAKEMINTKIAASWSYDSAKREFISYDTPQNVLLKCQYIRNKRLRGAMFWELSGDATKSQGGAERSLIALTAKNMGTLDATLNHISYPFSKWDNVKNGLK

[6] = biological target: Ustilago maydis Jps1^1-484 (lacking the unstructured C-terminus) (Ustilago maydis); assay: SAXS; P12 beamline, batch mode, 10 °C, 0.6 mg/ml purified Jps1^1-484; rigid body modeling of the dimer with CORAL
[7] = biological target: Ustilago maydis Jps1^1-484 (lacking the unstructured C-terminus) (Ustilago maydis); assay: SEC-MALS; after SEC purification the sample was applied to a Superdex 200 10/30 column coupled to a miniDAWN TREOS light scattering detector and a refractive index detector; monomer to dimer
[8] = biological target: Hebeloma cylindrosporum Jps1, full-length recombinant (Hebeloma cylindrosporum); assay: as above
[9] = biological target: Ustilago maydis Jps1, full-length recombinant (Jps1^1-609) (Ustilago maydis); assay: mass photometry; TwoMP mass photometer, protein at 10 nM in Hepes buffer, room temperature; monomer to dimer
[10] = biological target: Ustilago maydis Jps1, full-length recombinant (Jps1^1-609) (Ustilago maydis); assay: SEC-MALS; after SEC purification the sample was applied to a Superdex 200 10/30 column coupled to a miniDAWN TREOS light scattering detector and a refractive index detector; monomer to dimer

Sporisorium reilianum Jps1, full-length recombinant (natural protein)
stoichiometry N [1]: 2 | stoichiometry N [2]: 2

PI(4,5)P2
% of input protein bound [3]: ~ 50% | Kd [4]: 900 nM

CC(=O)N[C@H]1[C@H](Oc2ccc3c(C)cc(=O)oc3c2)O[C@H](CO)[C@@H](O[C@@H]2O[C@H](CO)[C@@H](O[C@@H]3O[C@H](CO)[C@@H](O)[C@H](O)[C@H]3NC(C)=O)[C@H](O)[C@H]2NC(C)=O)[C@@H]1O [MUC, 4-methylumbelliferyl-β-D-N, N′, N’’-triacetylchitotrioside]
fluorogenic chitinase assay, intact cells or native extract [5]: MUC, a fluorogenic substrate 4-methylumbelliferyl-β-D-N, N′, N’’-triacetylchitotrioside

Ustilago maydis Jps1^1-484 (lacking the unstructured C-terminus) (domain or fragment)
stoichiometry N [6]: 2 | stoichiometry N [7]: 2

Hebeloma cylindrosporum Jps1, full-length recombinant (natural protein)
stoichiometry N [8]: 2

Ustilago maydis Jps1, full-length recombinant (Jps1^1-609) (natural protein)
percent of particles in the dimer fraction [9]: 69% | stoichiometry N [9]: 2 | stoichiometry N [10]: 2
